The values that follow come from patent publication US20230357354A1, “CD38-BINDING CD31 PEPTIDES AND USES THEREOF” (ENCEFA, priority 2020, published 2023).

This experiment has as its system dopaminergic (TH^+) neurons in midbrain cultures. Kind of experiment: MPP+ intoxication model: DA (TH+) cell survival in midbrain cultures. The experiment is classed as cell-based, Wistar rat. As for the experimental part: Animals were treated in accordance with the Guide for the Care and Use of Laboratory Animals (National Research Council, 1996), European Directive 86/609, and the guidelines of the local institutional animal care and use committee. Cultures were prepared from the ventral mesencephalon of gestational age 15.5 Wistar rat embryos (Janvier Breeding Center, Le Genest St Isle, France). Dissociated cells in suspension obtained by mechanical trituration of midbrain tissue pieces were seeded at a density of 1.2-1.5×10^5 cells/cm^2 onto tissue culture supports precoated with 1 mg/mL polyethylenimine diluted in borate buffer pH 8.3 as described (Michel et al., 1997. J Neurochem. 69(4):1499-507). The cultures were then maintained in N5 medium supplemented with 5 mM glucose, 5 % horse serum, and 0.5 % fetal calf serum, except for the first 3 DIV, when the concentration of fetal calf serum was 2.5% to favor initial maturation of the cultures (Guerreiro et al., 2008. Mol Pharmacol. 74(4):980-9). They were fed daily by replacing 70% of the medium. Routinely, mesencephalic cultures were established on Nunc 24-well culture plates (Thermofischer Scientific, Rochester, NY). Note that these cultures contain tyrosine hydroxylase (TH)^+ neurons that were exclusively dopaminergic (Traver et al., 2006. Mol Pharmacol. 70(1):30-40). […]

B1: murine sCD31: murine soluble CD31 (extracellular domain of CD31) having SEQ ID NO: 18, used in Example 1 (protein, listed as Mus musculus)
chain: MLLALGLTLVLYASLQAEENSFTINSIHMESLPSWEVMNGQQLTLECLVDISTTSKSRSQHRVLFYKDDAMVYNVTSREHTESYVIPQARVFHSGKYKCTVMLNNKEKTTIEYEVKVHGVSKPKVTLDKKEVTEGGVVTVNCSLQEEKPPIFFKIEKLEVGTKFVKRRIDKTSNENFVLMEFPIEAQDHVLVFRCQAGILSGFKLQESEPIRSEYVTVQESFSTPKFEIKPPGMIIEGDQLHIRCIVQVTHLVQEFTEIIIQKDKAIVATSKQSSEAVYSVMAMVEYSGHYTCKVESNRISKASSIMVNITELFPKPKLEFSSSRLDQGELLDLSCSVSGTPVANFTIQKEETVLSQYQNFSKIAEESDSGEYSCTAGIGKVVKRSGLVPIQVCEMLSKPSIFHDAKSEIIKGHAIGISCQSENGTAPITYHLMKAKSDFQTLEVTSNDPATFTDKPTRDMEYQCRADNCHSHPAVFSEILRVRVIAPVDEVVISILSSNEVQSGSEMVLRCSVKEGTSPITFQFYKEKEDRPFHQAVVNDTQAFWHNKQASKKQEGQYYCTASNRASSMRTSPRSSTLAVRVFL
modifications: Murine sCD31
Consider B1, for which, for the setting “3 µM MPP^+ between 5 and 7 DIV”, the “EC50 of prevention of MPP^+-induced DA cell loss” value was 0.036 µg/mL. Moreover, where the note is “MPP^+ 3 µM between 5 and 7 DIV, HB7 1 µg/mL”, the “neuroprotective effect against MPP^+-induced DA cell death” value is recorded as “neuroprotective”.
